Key:
[1] = target: S1; assay: BLI
[2] = target: S1-biotin(ACRO); assay: BLI

B1: Ab 29 (scFv, V domains shown)
VH: QVQLQQSGPGLVKPSQTLSLTCAISGDSVSSYSDAWNWIRQSPSRGLEWLGRTYYRSKWYNDYAVSVKSRITINPDTSKNQFSLQLSSVTPEDTAVYYCAREIVATTPFRNYYYGMDVWGQGTTVTVSS
VL: NFMLTQPHSVSESPGNTVTISCTRTSGSIASNYVQWYQQRPGSSPTTVIFQDKLRPSGVPDRFSGSIDSSSNSASLTISGLKTEDEADYYCQSYDSSSLWVFGGGTKLTVL
For B1, which Kd [1] is on record?
Its Kd is under 0.001 nM.

B2: Ab 8 (scFv, V domains shown)
VH: QVQLVQSGAEVKKPGSSVKVSCKASGGTFSSYAISWLRQAPGQGLEWMGWINPNSGGTNYAQKFQGRVTMTRDTSISTAYMELSRLRSDDTAVYYCARGSGGYYLGWGQGTLVTVSS
VL: QPGLTQPPSVSKGLRQTATLTCTGNSNNVGNQGAAWLQQHQGHPPKLLSYMNNNRPPGISERFSASRSGNTASLTITGLQPEDEADYYCSAWDSSLSRWVFGGGTKLSVL
Which Kd [1] does the source give for B2 here?
Its Kd is 325 nM.

B3: Ab 21 (scFv, V domains shown)
VH: QVQLVQSGGGLVQPGGSLRLSCATSGFTFDDYAMHWVRQAPGKGLEWVSGISWNSGSIGYVDSVKGRFTISRDNRNNKVYLQMNNLRAEDTAVYYCARDWWGSIDHWGLGTLVTVSS
VL: QSALTQPRSVSGSPGQSVTISCTGTSSDVGGYDYVSWYQQHPGKAPKLIIYDVSKRPSGVPDRFSGSKSGNTASLTVSGLQAEDEADYYCSSYTSSSPVVFGGGTKLTVL
Which Kd [1] does the source give for B3 here?
Its Kd is 1.28 nM.

What about the Kd [2] of the same binder?
Its Kd is 1.28 nM.

B4: Ab 18 (scFv, V domains shown)
VH: EVQLVQSGGGVVQPGRSLRVSCAASGFSFSRYGMHWVRQAPGKGLEWVAFIRHDGSKKYYADSVEGRFTISRDNSRNTVSLEMNSLRGEDTAVYYCAKDGRLEAALDDWGQGTLVTVSS
VL: NFMLTQPHSMSGSAGKTVTVSCIRSSGSIANNFVQWYQQRPGSAPTTVIYEDNQRPSGVPDRFSGSIDSSSNSASLTISGLKTEDEADYYCQSYDSSNLVFGGGTRLTVL
With B4 as the binder, how does the Kd [1] read?
Its Kd is 0.121 nM.

What about the Kd [2] of the same binder?
The Kd was 0.121 nM.

B5: Ab 37 (scFv, V domains shown)
VH: QVQLVQSGAEVKKPGASVKVSCKASGYTFTSYGISWVRQAPGQGLEWMGWISTYNGNTNYAQKLQGRVTMTTDTSTSTAYMEVRSLRSDDTAVYYCARDVFGHFDYWGQGTLVTVSS
VL: NFMLTQPHSVSESPGKTVLISCTRSSGNIATNYVQWYQQRPGSAPTTVIYEDNQRPSGVPDRFSGSIDSSSNSASLTISGLKTEDEADYYCKSYDDGNHVFGGGTKLTVL
With B5 as the binder, how does the Kd [1] read?
Its Kd is 0.907 nM.

B6: Ab 16 (scFv, V domains shown)
VH: QVQLVQSGGGVVQPGRSLRLSCAASGFTFSNYGMHWVRQAPGKGLEWVALIWERGSKKDYADSVKGRFTVSRDNSKNTLYLQMNSLRPEDTAVYFCAREGISMTGAEYFQHWGQGTLVTVSS
VL: QSVLTQPPSVSGSPGQRVTMSCTGSSSNIGAGYDVHWYQQVPGAAPRLLIYGTNNRPSGVPDRFSGSKSGTSASLTITGLQAEDEADYYCQSYDNSLTDPYVFGTGTKVTVL
What does the source list for B6?
Kd [1]: 2.18 nM; Kd [2]: 2.18 nM

B7: Ab 34 (scFv, V domains shown)
VH: QVQLVQSGVEVKKPGESLKISCKGSGYSFTSYWIGWVRQMPGKGLEWMGIIYPGDSDTRYSPSFQGQVTISADKSISTAYLQWSSLKASDTAMYYCARTTYSYGSFDYWGQGTLVTVSS
VL: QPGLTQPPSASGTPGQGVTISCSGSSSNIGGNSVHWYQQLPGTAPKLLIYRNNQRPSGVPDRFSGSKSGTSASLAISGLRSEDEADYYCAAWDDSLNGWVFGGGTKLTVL
How did the Kd [1] turn out when B7 was run?
The Kd was 0.184 nM.

B8: Ab 39 (scFv, V domains shown)
VH: QVTLKESGPTLVKPTQTLTLTCTLSGVSLDTIGMRVSWIRQPPGKALEWLARIDWDDDKFYSTALKTRLTISKDTSKNQVVFTMTSMDPVDTATYYCARSGLLYDLDVWGRGTLVTVSS
VL: QSVVTQPPSVSGAPGQRVTISCTGSDSDIGANFVQWYQQLPGTAPKLLIWRNTNRPSGVPDRFSASKSGTSASLAITGLQAEDEADYFCQSYDSSLSAYVFGGGTKVTVL
How did the Kd [1] turn out when B8 was run?
The Kd was under 0.001 nM.

B9: Ab 36 (scFv, V domains shown)
VH: QVQLQQSGPGLVKPSQTLSLTCAIFGDSVTSNSAAWNWIRQSPSRGLEWLGRTYYSSKWYNDYAVSVKSRVTINADTSKNQLSLQLNSVTPEDTAVYYCARGWLRLSFDPWGQGTLVTVSS
VL: NFMLTQPHSVSESPGKTVTISCTGSSGSIASNYVQWLQQRLGSAPTTVIYEDNQRPSGVPDRFSGSIDSSSNSASLTISGLKTEDEADYYCQSYDPNNHGVVFGGGTKLTVL
Which Kd [1] does the source give for B9 here?
Its Kd is 0.0306 nM.

B10: Ab 32 (scFv, V domains shown)
VH: QVQLVQSGAEVKKPGESLKISCKGSGYSFTSYWIGWVRQMPGKGLEWMGIIYPGDSDTRYSPSFQGQVTISADKSISTAYLQWSSLKASDTAMYYCARGWQWHDYWGQGTLVTVSS
VL: QTVVTQEPAVSVALGQTVRITCQGDSLRSYYASWYQQKPGQAPVLVVYDKDKRPSGIPDRFSGSTSGNTASLTITGAQAEDEADYYCNSRDRSDNHVVFGGGTKLTVL
B10 was tested. Which Kd [1] did it give?
Its Kd is 0.168 nM.

B11: Ab 31 (scFv, V domains shown)
VH: QVQLVQSGAEVKKPGSSVKVSCKASGGTFSSYTISWVRQAPGQGLEWMGGIIPILGTPNYAQKFQDRVAITADKSTSTAYMELSSLRSEDTAVYYCAVGSGWYSGFDYWGQGTLVTVSS
VL: NFMLTQPHSVSESPGKTVTISCTGSSGSIASNYVQWYQQRPGSAPTTVIYEDSQRPSGVPDRFSGSIDSSSNSASLTISGLKTEDEADYYCQSFHNSNPVIFGGGTKLTVL
How did the Kd [1] turn out when B11 was run?
The Kd was 2040 nM.

B12: Ab 13 (scFv, V domains shown)
VH: QVTLKESGPKLVKPTQTLTLTCTFSGFSLSTSGVGVGWIRQPPGKALEWLALIYWDDDKRYSPSLKSRLTIAKDTSKYQVVLTMTNMDPVDTATYYCARISGSGYFYPFDIWGQGTMVTVSA
VL: NFMLTQPHSVSESPGKTVTISCTRSSGSIASNYVQWYQQRPGSAPTTVIYEDNQRPSGVPDRFSGSIDSSSNSASLTISGLKTEDEADYYCQSYDSSNLWVFGGGTKLTVL
With B12 as the binder, how does the Kd [1] read?
The Kd was 1.14 nM.

And the Kd [2]?
The Kd was 1.14 nM.

B13: Ab 20 (scFv, V domains shown)
VH: QVQLVQSGGGSVKPGGSLRLSCAASGYRLSDYYMHWVRQAPGKGLEWVANIKQDGSEKYYVDSVKGRFTISRDNAKNSLYLQMNSLRAEDTAVYYCARVRGWSRGYFDYWGQGTLVTVSS
VL: NFMLTQPHSVSESPGKTVTISCTGSSGSIASNYVQWYQQRPGSAPTTVIYEDNQRPSGVPDRFSGSIDSSSNSASLLISGLKTEDEADYYCQSYDSSNHWVFGGGTKLTVL
Which results are given for B13?
Kd [1]: 5.01 nM; Kd [2]: 5.01 nM

B14: Ab 17 (scFv, V domains shown)
VH: QVQLVQSGGGVVQPGRSLRLSCAASGFTFDDYAMHWVRQVPGKGLEWVSGIDWNSGVIGYADSVKGRFTISRDNVKNSLYLQMNSLRTEDSALYYCAKDIGPGGSGSYYAFDIWGQGTTVTVSS
VL: QSALTQPASVSGSPGQSITISCTGTSSDVGGSKYVSWYQQHPGKAPKVMIYDVTKRPSGVPDRFSGSKSGNTASLTISGLQAEDEADYYCAAWDDSLNGVVFGGGTKLTVL
How did the Kd [1] turn out when B14 was run?
Its Kd is 0.716 nM.

What about the Kd [2] of the same binder?
Its Kd is 0.716 nM.

B15: Ab 38 (scFv, V domains shown)
VH: QVTLKESGPTLVKPTQTLTLTCTFSGFSLTTSGVSVGWIRQPPGKALEWLALIHWDDDKRYSPSLRSRLTITRDTSKNQVVLTVTDMDPADTGTYYCASFIMTVYAEYFEDWGQGTLVTVSS
VL: EIVLTQSPATLSVSPGERATLSCRASQSVSSNLAWYQQKPGQAPRLLMYDVSTRATGIPARFSGSGSGTEFSLTISSLQSEDFAVYYCQQRGAWPLTFGGGTKVEIK
Which Kd [1] does the source give for B15 here?
The Kd was 0.22 nM.
